Reference: patent US9187525B2, “Methods of treating ophthalmic diseases using NPR-B agonists” (Shire Orphan Therapies GmbH, dated 2015)
Numbered stars: 1 amine (or outer) side, 2 acyl side, 3 side chain; on linkers, the order of the positions; unused ones are H or OH. Square brackets hold non-standard residues; d marks the D form. Primed or numbered codes have the meaning given here. Ends that are not written are not given here. * marks the point of attachment. 2857‑Ac = 2-((2S,3R,4R,5R)-2,3,4,5,6-pentahydroxyhexylamino)acetic acid, O=C(CN(C[C@H](O)[C@@H](O)[C@H](O)[C@H](O)CO)[*:1])[*:2]; Eao = rac-1-amino-2,3-dihydro-1H-indene-1-carboxylic acid, O=C(C1(N[*:1])CCc2ccccc21)[*:2]; Sni = (S)-nipecotic acid, O=C([C@H]1CCCN([*:1])C1)[*:2]; Egg = 2-Amino-3-piperidin-4-yl-propionic acid; pT = C[C@@H](OP(=O)(O)O)[C@H](N)C(=O)O; Cya = N[C@@H](CS(=O)(=O)O)C(=O)O; Hyp = O=C(O)[C@@H]1C[C@@H](O)CN1; pS = N[C@@H](COP(=O)(O)O)C(=O)O; Aoc(2) = CCCCCC[C@H](N)C(=O)O; NMeL = CN[C@@H](CC(C)C)C(=O)O; Aic = NC1(C(=O)O)Cc2ccccc2C1; Hyp(2581) = not defined here; orn(Me2) = not defined here; NHexGly = CCCCCCNCC(=O)O; Octanoyl = CCCCCCCC(=O)*; 2137 = not defined here; 3816 = not defined here; dHgl = not defined here; Che = not defined here; Rni = not defined here; leu = not defined here; Occ = octanoic acid; Dha = C=C(N)C(=O)O

T1: natriuretic peptide receptor-B (human)
T1 chain: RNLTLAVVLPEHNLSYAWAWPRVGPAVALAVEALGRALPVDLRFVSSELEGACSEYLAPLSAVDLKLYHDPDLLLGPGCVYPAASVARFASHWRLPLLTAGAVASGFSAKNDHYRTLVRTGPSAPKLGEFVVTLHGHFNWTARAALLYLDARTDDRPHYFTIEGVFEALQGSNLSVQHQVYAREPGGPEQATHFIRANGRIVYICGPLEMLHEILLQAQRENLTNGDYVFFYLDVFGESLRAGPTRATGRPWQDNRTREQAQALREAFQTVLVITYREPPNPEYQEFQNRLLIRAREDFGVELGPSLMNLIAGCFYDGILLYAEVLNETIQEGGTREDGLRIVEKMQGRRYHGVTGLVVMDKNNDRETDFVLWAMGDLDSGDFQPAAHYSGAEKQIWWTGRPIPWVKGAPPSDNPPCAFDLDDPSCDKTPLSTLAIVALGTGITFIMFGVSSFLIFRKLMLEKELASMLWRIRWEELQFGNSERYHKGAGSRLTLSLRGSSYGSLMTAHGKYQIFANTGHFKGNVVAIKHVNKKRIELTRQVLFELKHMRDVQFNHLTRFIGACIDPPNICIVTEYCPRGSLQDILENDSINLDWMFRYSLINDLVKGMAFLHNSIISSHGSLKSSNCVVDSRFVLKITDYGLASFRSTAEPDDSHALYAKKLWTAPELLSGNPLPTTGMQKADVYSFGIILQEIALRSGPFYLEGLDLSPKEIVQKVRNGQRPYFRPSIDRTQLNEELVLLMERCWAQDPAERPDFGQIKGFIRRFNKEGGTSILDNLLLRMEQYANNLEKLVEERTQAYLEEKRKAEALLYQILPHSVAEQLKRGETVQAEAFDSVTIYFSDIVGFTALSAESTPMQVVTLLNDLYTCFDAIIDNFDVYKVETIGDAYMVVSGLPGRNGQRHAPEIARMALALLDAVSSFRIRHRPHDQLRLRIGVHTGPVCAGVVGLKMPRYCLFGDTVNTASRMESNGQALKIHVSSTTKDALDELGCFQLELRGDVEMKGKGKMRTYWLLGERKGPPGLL


Target: T1, natriuretic peptide receptor-B
Assay: cell-based or functional assay

EC50 group, cGMP in GTM-3 cells	Binder
≤ 5 µM	[Occ][Sni]F[orn(Me2)]L[Hyp][NMeL]SR[Che] (reading uncertain; also: printed as Occ-Sni-Phe-orn(Me2)-Leu-Hyp-Nml-Ser-Arg-Che) [JAL-1894]
≤ 5 µM	[2857‑Ac][Aoc(2)][Sni]FLL[Hyp][NMeL]DRI-NH2 (not fully specified (residue 5); printed as (2857-Ac)-Hgl-Sni-Phe-leu-Leu-Hyp-Nml-Asp-Arg-Ile-NH2) [JAL-1901]
≤ 1 µM	[Occ][Sni]F[orn(Me2)]L[Hyp][NMeL]TR[Che] (reading uncertain; also: printed as Occ-Sni-Phe-orn(Me2)-Leu-Hyp-Nml-Thr-Arg-Che) [JAL-1895]
≤ 5 µM	H-K[dHgl][Sni]FLL[Hyp][NMeL]DRI-NH2 (not fully specified (residue 5); printed as H-Lys-hgl-Sni-Phe-leu-Leu-Hyp-Nml-Asp-Arg-Ile-NH2; reading uncertain) [JAL-1899]
≤ 5 µM	[NHexGly][Sni]FLL[Hyp][NMeL]DRI-NH2 (not fully specified (residue 4); printed as (1625-Ac)-Sni-Phe-leu-Leu-Hyp-Nml-Asp-Arg-Ile-NH2) [JAL-1907]
≤ 5 µM	[Occ][Sni]F[orn(Me2)]L[Hyp][NMeL]TRI-NH2 (reading uncertain; also: printed as Occ-Sni-Phe-orn(Me2)-Leu-Hyp-Nml-Thr-Arg-Ile-NH2) [JAL-1924]
≤ 15 µM	[Occ][Sni]F[orn(Me2)]L[Hyp][NMeL]SRI-NH2 (reading uncertain; also: printed as Occ-Sni-Phe-orn(Me2)-Leu-Hyp-Nml-Ser-Arg-Ile-NH2) [JAL-1921]
≤ 5 µM	[Occ][Sni]F[Eao]L[Hyp][NMeL]DRI-NH2 [JAL-1892]
≤ 5 µM	H-[Aoc(2)][Sni]FLL[Hyp][NMeL]DRI-NH2 (not fully specified (residue 4); printed as H-Hgl-Sni-Phe-leu-Leu-Hyp-Nml-Asp-Arg-Ile-NH2) [JAL-1896]
≤ 5 µM	[Occ][Sni]F[leu]LX[NMeL]DRI-NH2 (not fully specified (residue 6); printed as Occ-Sni-Phe-leu-Leu-Hyp(Asp(-))-Nml-Asp-Arg-Ile-NH2) [JAL-1928]
≤ 1 µM	H-KP[Aoc(2)][Sni]FLL[Hyp][NMeL]DRI-NH2 (not fully specified (residue 6); printed as H-Lys-Pro-Hgl-Sni-Phe-leu-Leu-Hyp-Nml-Asp-Arg-Ile-NH2) [JAL-1900]
≤ 5 µM	[Occ][Sni]F[orn(Me2)]L[Hyp][NMeL][Cya]RI-NH2 (reading uncertain; also: printed as Occ-Sni-Phe-orn(Me2)-Leu-Hyp-Nml-Cya-Arg-Ile-NH2) [JAL-1923]
≤ 5 µM	[Occ][Sni]F[leu]L[Hyp(2581)][NMeL]DRI-NH2 (reading uncertain; also: printed as Occ-Sni-Phe-leu-Leu-Hyp(2581)-Nml-Asp-Arg-Ile-NH2) [JAL-1929]
≤ 5 µM	[Occ][Sni]F[orn(Me2)]L[Hyp][NMeL][pT]R[Che] (reading uncertain; also: printed as Occ-Sni-Phe-orn(Me2)-Leu-Hyp-Nml-Pth-Arg-Che) [JAL-1918]
≤ 15 µM	[Occ][Sni]F[orn(Me2)]L[Hyp][NMeL][pS]R[Che] (reading uncertain; also: printed as Occ-Sni-Phe-orn(Me2)-Leu-Hyp-Nml-Pse-Arg-Che) [JAL-1916]
≤ 15 µM	Octanoyl-[dA][dA]FGLKLDR[2137] (reading uncertain; also: printed as Occ-ala-ala-Phe-Gly-Leu-Lys-Leu-Asp-Arg-2137) [JAL-0748]
≤ 5 µM	[Occ][Sni]F[Dha]L[Hyp][NMeL]DRI-NH2 [JAL-1915_2]
≤ 15 µM	[Occ][Rni]FGLKLDRI-NH2 (reading uncertain; also: printed as Occ-Rni-Phe-Gly-Leu-Lys-Leu-Asp-Arg-Ile-NH2) [JAL-0744]
≤ 5 µM	[Occ][Sni]F[leu]L[Hyp][NMeL]SRI-NH2 (reading uncertain; also: printed as Occ-Sni-Phe-leu-Leu-Hyp-Nml-Ser-Arg-Ile-NH2) [JAL-1920]
≤ 5 µM	H-[dHgl][Sni]FLL[Hyp][NMeL]DRI-NH2 (not fully specified (residue 4); printed as H-hgl-Sni-Phe-leu-Leu-Hyp-Nml-Asp-Arg-Ile-NH2; reading uncertain) [JAL-1897]
≤ 5 µM	H-K[Aoc(2)][Sni]FLL[Hyp][NMeL]DRI-NH2 (not fully specified (residue 5); printed as H-Lys-Hgl-Sni-Phe-leu-Leu-Hyp-Nml-Asp-Arg-Ile-NH2) [JAL-1898]
≤ 5 µM	[Occ][Sni]F[Aic]L[Hyp][NMeL]DRI-NH2 [JAL-1893]
≤ 15 µM	Octanoyl-[dA][dA]FGLKLDR[3816] (reading uncertain; also: printed as Occ-ala-ala-Phe-Gly-Leu-Lys-Leu-Asp-Arg-3816) [JAL-0749]
≤ 15 µM	Octanoyl-[Sni]FLL[Hyp][NMeL][pS]R[Che] (not fully specified (some residues); printed as Occ-Sni-Phe-leu-Leu-Hyp-Nml-Pse-Arg-Che; reading uncertain) [JAL-1917]
≤ 5 µM	[Occ][Sni]F[leu]L[Hyp][NMeL][Cya]RI-NH2 (reading uncertain; also: printed as Occ-Sni-Phe-leu-Leu-Hyp-Nml-Cya-Arg-Ile-NH2) [JAL-1922]
≤ 15 µM	[Occ][Sni]F[orn(Me2)]L[Hyp][NMeL][pT]RI-NH2 (reading uncertain; also: printed as Occ-Sni-Phe-orn(Me2)-Leu-Hyp-Nml-Pth-Arg-Ile-NH2) [JAL-1913]
≤ 15 µM	Octanoyl-[Sni]FLL[Hyp][NMeL][pS]RI-NH2 (not fully specified (some residues); printed as Occ-Sni-Phe-leu-Leu-Hyp-Nml-Pse-Arg-Ile-NH2) [JAL-1912]
≤ 5 µM	[Occ][Sni]F[leu]L[Hyp][NMeL][pT]R[Che] (reading uncertain; also: printed as Occ-Sni-Phe-leu-Leu-Hyp-Nml-Pth-Arg-Che) [JAL-1919]
≤ 1 µM	[Occ][Sni]F[Egg]L[Hyp][NMeL]DRI-NH2 [JAL-1890]
